The assay concerns the target Aurora B-phosphorylated WT His-PKM2 (human, UniProt P14618 1-531, phosphothreonine at 45 (by Aurora B in vitro)). The assay can be described thus: pull-down.

Chain of Aurora B-phosphorylated WT His-PKM2 (P14618 whole entry): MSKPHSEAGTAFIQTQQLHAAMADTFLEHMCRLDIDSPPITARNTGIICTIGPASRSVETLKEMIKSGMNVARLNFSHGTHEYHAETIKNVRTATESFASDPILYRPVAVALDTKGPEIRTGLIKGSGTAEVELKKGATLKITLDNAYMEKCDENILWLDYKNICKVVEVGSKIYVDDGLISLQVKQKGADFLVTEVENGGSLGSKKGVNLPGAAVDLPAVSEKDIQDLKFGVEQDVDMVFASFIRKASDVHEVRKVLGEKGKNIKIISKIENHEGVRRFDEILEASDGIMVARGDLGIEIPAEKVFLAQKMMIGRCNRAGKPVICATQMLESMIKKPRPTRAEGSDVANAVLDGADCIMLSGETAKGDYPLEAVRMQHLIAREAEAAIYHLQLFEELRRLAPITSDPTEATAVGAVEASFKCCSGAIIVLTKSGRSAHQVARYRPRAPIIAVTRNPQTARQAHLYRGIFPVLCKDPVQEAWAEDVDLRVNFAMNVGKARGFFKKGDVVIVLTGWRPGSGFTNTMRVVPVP

B1: GST-MLC2 (wild type, recombinant) (natural protein)
chain: MAPKKAKKRAGGANSNVFSMFEQTQIQEFKEAFTIMDQNRDGFIDKNDLRDTFAALGRVNVKNEEIDEMIKEAPGPINFTVFLTMFGEKLKGADPEETILNAFKVFDPEGKGVLKADYVREMLTTQAERFSKEEVDQMFAAFPPDVTGNLDYKNLVHIITHGEEKD
As for B1, the binding result is “binds”.

These data come from article PMC4259466 (Nature communications, 2014).
